Paper PMC9482650, “Quantitative fragmentomics allow affinity mapping of interactomes” (Nature Communications, 2022)
Where a chain is given by its changes, count along the chain named.

T1: LIN7C, Q9NUP9
T1 sequence (Q9NUP9 88-185, limits assumed, looked up): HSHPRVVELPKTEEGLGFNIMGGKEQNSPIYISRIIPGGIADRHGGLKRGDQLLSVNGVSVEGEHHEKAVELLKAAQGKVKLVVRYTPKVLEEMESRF

T2: MPP2, Q14168
T2 sequence (Q14168 180-250, limits assumed, looked up): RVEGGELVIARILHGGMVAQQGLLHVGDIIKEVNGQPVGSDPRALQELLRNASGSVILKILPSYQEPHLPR

T3: PDZD2_2, O15018
T3 sequence (O15018 329-429, limits assumed, looked up): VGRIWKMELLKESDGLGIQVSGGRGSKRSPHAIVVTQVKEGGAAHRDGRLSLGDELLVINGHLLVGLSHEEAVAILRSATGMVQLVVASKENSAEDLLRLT

T4: LIN7B, Q9HAP6
T4 sequence (Q9HAP6 88-185, limits assumed, looked up): T1 sequence (Q9NUP9 88-185, limits assumed, looked up) with S2A, E13D, I35V, I40V, H65Q, K79S, K89R, S96A

T5: FRMPD1, Q5SYB0
T5 sequence (Q5SYB0 52-145, limits assumed, looked up): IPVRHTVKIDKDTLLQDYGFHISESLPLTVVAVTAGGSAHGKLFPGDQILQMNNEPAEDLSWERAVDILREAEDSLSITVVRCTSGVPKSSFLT

T6: HTRA4, P83105
T6 sequence (P83105 378-476, limits assumed, looked up): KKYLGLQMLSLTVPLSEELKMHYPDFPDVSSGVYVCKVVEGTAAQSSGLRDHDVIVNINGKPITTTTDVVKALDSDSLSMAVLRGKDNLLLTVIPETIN

T7: DVL3, Q92997
T7 sequence (Q92997 244-331, limits assumed, looked up): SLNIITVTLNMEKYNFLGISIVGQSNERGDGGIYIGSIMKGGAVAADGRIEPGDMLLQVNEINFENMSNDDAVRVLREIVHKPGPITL

T8: PDZD7_3, Q9H5P4
T8 sequence (Q9H5P4 857-944, limits assumed, looked up): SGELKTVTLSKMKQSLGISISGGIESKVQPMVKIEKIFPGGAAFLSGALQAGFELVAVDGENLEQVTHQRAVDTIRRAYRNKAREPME

T9: APBA3_1, O96018
T9 sequence (O96018 389-490, limits assumed, looked up): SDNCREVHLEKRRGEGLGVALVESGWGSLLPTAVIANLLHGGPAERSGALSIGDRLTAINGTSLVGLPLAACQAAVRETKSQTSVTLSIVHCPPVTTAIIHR

T10: LNX2_3, Q8N448
T10 sequence (Q8N448 463-564, limits assumed, looked up): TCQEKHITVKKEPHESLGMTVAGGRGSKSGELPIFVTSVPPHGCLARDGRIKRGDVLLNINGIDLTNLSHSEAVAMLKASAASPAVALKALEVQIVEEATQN

T11: GRIP1_4, Q9Y3R0
T11 sequence (Q9Y3R0 467-571, limits assumed, looked up): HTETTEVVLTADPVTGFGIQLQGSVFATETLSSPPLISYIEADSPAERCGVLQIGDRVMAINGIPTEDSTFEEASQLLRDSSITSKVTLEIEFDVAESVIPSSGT

B1: DACT1, Q9NYF0 (peptide)
chain: SGSLKLMTTV
B2: NOSTRIN, Q8IVI9 (peptide)
chain: SNAGNTATKA

What follows are binders tested against T1, LIN7C, Q9NUP9 (assay: holdup assay). Settings: plain residues with an end cap or a label only (N-terminal biotin on a linker: ado-ado).
Design: key: below the threshold = too weak to quantify, mostly under pKd 3.1 to 4

Binder	pKd
B1	below the threshold
B2	below the threshold

The binders below were run against T2, MPP2, Q14168 (assay: holdup assay). Settings: plain residues with an end cap or a label only (N-terminal biotin on a linker: ado-ado).
Design: key: below the threshold = too weak to quantify, mostly under pKd 3.1 to 4

Binder	pKd
B1	below the threshold
B2	below the threshold

What follows are binders tested against T3, PDZD2_2, O15018 (assay: holdup assay). Settings: plain residues with an end cap or a label only (N-terminal biotin on a linker: ado-ado).
Design: key: below the threshold = too weak to quantify, mostly under pKd 3.1 to 4

Binder	pKd
B1	3.92
B2	below the threshold

What follows are binders tested against T4, LIN7B, Q9HAP6 (assay: holdup assay). Settings: plain residues with an end cap or a label only (N-terminal biotin on a linker: ado-ado).
Design: key: below the threshold = too weak to quantify, mostly under pKd 3.1 to 4

Binder	pKd
B1	below the threshold
B2	3.74

The binders below were run against Inadl_1, Q8NI35 (assay: holdup assay). Settings: plain residues with an end cap or a label only (N-terminal biotin on a linker: ado-ado).
Design: key: below the threshold = too weak to quantify, mostly under pKd 3.1 to 4

Chain of Inadl_1, Q8NI35 (Q8NI35 113-229): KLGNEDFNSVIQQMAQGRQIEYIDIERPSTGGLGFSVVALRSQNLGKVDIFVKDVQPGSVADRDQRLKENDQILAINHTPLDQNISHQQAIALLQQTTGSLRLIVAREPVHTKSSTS

Binder	pKd
B1	below the threshold
B2	below the threshold

What follows are binders tested against T5, FRMPD1, Q5SYB0 (assay: holdup assay). Settings: plain residues with an end cap or a label only (N-terminal biotin on a linker: ado-ado).
Design: key: below the threshold = too weak to quantify, mostly under pKd 3.1 to 4

Binder	pKd
B1	below the threshold
B2	below the threshold

These binders were tested against GRID2IP_1, A4D2P6 (assay: holdup assay). Settings: plain residues with an end cap or a label only (N-terminal biotin on a linker: ado-ado).
Design: key: below the threshold = too weak to quantify, mostly under pKd 3.1 to 4

Chain of GRID2IP_1, A4D2P6 (A4D2P6 1-87): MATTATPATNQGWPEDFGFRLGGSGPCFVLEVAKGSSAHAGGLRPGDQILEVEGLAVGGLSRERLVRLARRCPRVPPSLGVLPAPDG

Binder	pKd
B1	below the threshold
B2	below the threshold

These binders were tested against T6, HTRA4, P83105 (assay: holdup assay). Settings: plain residues with an end cap or a label only (N-terminal biotin on a linker: ado-ado).
Design: key: below the threshold = too weak to quantify, mostly under pKd 3.1 to 4

Binder	pKd
B1	4.26
B2	below the threshold

Each binder was assayed against MAGI2_5, Q86UL8 (assay: holdup assay). Settings: plain residues with an end cap or a label only (N-terminal biotin on a linker: ado-ado).
Design: key: below the threshold = too weak to quantify, mostly under pKd 3.1 to 4

Chain of MAGI2_5, Q86UL8 (Q86UL8 915-1017): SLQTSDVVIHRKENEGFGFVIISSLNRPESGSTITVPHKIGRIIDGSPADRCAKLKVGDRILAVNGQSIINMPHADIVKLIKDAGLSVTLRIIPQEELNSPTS

Binder	pKd
B1	4.51
B2	below the threshold

Each binder was assayed against DLG4_1, P78352 (assay: holdup assay). Settings: plain residues with an end cap or a label only (N-terminal biotin on a linker: ado-ado).
Design: key: below the threshold = too weak to quantify, mostly under pKd 3.1 to 4

Chain of DLG4_1, P78352 (P78352 62-152): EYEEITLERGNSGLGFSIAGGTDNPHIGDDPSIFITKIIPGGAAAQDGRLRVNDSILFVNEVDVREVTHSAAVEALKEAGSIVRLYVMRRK

Binder	pKd
B1	5.02
B2	below the threshold

What follows are binders tested against Inadl_9, Q8NI35 (assay: holdup assay). Settings: plain residues with an end cap or a label only (N-terminal biotin on a linker: ado-ado).
Design: key: below the threshold = too weak to quantify, mostly under pKd 3.1 to 4

Chain of Inadl_9, Q8NI35 (Q8NI35 1530-1615): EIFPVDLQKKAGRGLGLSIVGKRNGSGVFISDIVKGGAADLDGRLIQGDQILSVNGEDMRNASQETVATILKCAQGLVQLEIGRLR

Binder	pKd
B1	below the threshold
B2	below the threshold

Each binder was assayed against T7, DVL3, Q92997 (assay: holdup assay). Settings: plain residues with an end cap or a label only (N-terminal biotin on a linker: ado-ado).
Design: key: below the threshold = too weak to quantify, mostly under pKd 3.1 to 4

Binder	pKd
B1	below the threshold
B2	below the threshold

The binders below were run against Inadl_8, Q8NI35 (assay: holdup assay). Settings: plain residues with an end cap or a label only (N-terminal biotin on a linker: ado-ado).
Design: key: below the threshold = too weak to quantify, mostly under pKd 3.1 to 4

Chain of Inadl_8, Q8NI35 (Q8NI35 1425-1530): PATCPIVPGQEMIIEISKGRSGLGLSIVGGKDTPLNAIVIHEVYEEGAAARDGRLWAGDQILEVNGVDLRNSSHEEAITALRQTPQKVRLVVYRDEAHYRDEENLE

Binder	pKd
B1	4.09
B2	below the threshold

The binders below were run against ARHGEF12, Q9NZN5-2 (assay: holdup assay). Settings: plain residues with an end cap or a label only (N-terminal biotin on a linker: ado-ado).
Design: key: below the threshold = too weak to quantify, mostly under pKd 3.1 to 4

Chain of ARHGEF12, Q9NZN5-2 (Q9NZN5 other isoform, or with tags, fused parts or gaps): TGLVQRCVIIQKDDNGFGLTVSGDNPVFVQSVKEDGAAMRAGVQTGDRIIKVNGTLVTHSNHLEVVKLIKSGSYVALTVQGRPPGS

Binder	pKd
B1	4.62
B2	below the threshold

The binders below were run against FRMPD2_1, Q68DX3 (assay: holdup assay). Settings: plain residues with an end cap or a label only (N-terminal biotin on a linker: ado-ado).
Design: key: below the threshold = too weak to quantify, mostly under pKd 3.1 to 4

Chain of FRMPD2_1, Q68DX3 (Q68DX3 770-861): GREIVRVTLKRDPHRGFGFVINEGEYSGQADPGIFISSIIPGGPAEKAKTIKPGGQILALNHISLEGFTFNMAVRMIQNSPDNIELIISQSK

Binder	pKd
B1	below the threshold
B2	below the threshold

Each binder was assayed against NHERF4_1, Q86UT5-2 (assay: holdup assay). Settings: plain residues with an end cap or a label only (N-terminal biotin on a linker: ado-ado).
Design: key: below the threshold = too weak to quantify, mostly under pKd 3.1 to 4

Chain of NHERF4_1, Q86UT5-2 (Q86UT5 other isoform, or with tags, fused parts or gaps): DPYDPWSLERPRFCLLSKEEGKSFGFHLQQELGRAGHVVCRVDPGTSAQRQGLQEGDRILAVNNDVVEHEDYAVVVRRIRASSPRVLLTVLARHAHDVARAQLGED

Binder	pKd
B1	below the threshold
B2	below the threshold

Each binder was assayed against Inadl_6, Q8NI35 (assay: holdup assay). Settings: plain residues with an end cap or a label only (N-terminal biotin on a linker: ado-ado).
Design: key: below the threshold = too weak to quantify, mostly under pKd 3.1 to 4

Chain of Inadl_6, Q8NI35 (Q8NI35 1058-1167): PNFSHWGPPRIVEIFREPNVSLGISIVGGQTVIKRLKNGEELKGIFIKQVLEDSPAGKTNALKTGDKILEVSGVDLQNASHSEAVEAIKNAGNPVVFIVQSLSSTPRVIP

Binder	pKd
B1	below the threshold
B2	below the threshold

What follows are binders tested against IL16_4, Q14005 (assay: holdup assay). Settings: plain residues with an end cap or a label only (N-terminal biotin on a linker: ado-ado).
Design: key: below the threshold = too weak to quantify, mostly under pKd 3.1 to 4

Chain of IL16_4, Q14005 (Q14005 1229-1329): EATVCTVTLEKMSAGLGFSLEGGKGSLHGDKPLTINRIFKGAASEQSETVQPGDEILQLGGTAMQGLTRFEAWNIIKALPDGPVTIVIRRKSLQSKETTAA

Binder	pKd
B1	below the threshold
B2	below the threshold

What follows are binders tested against T8, PDZD7_3, Q9H5P4 (assay: holdup assay). Settings: plain residues with an end cap or a label only (N-terminal biotin on a linker: ado-ado).
Design: key: below the threshold = too weak to quantify, mostly under pKd 3.1 to 4

Binder	pKd
B1	5.22
B2	below the threshold

What follows are binders tested against Inadl_3, Q8NI35 (assay: holdup assay). Settings: plain residues with an end cap or a label only (N-terminal biotin on a linker: ado-ado).
Design: key: below the threshold = too weak to quantify, mostly under pKd 3.1 to 4

Chain of Inadl_3, Q8NI35 (Q8NI35 359-469): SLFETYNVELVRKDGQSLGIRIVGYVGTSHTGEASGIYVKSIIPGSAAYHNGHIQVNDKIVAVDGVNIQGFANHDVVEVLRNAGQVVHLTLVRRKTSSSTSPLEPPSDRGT

Binder	pKd
B1	below the threshold
B2	below the threshold

Each binder was assayed against LNX1_3, Q8TBB1 (assay: holdup assay). Settings: plain residues with an end cap or a label only (N-terminal biotin on a linker: ado-ado).
Design: key: below the threshold = too weak to quantify, mostly under pKd 3.1 to 4

Chain of LNX1_3, Q8TBB1 (Q8TBB1 500-596): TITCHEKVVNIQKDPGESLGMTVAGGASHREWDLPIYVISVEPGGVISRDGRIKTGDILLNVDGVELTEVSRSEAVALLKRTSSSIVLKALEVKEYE

Binder	pKd
B1	below the threshold
B2	below the threshold

The binders below were run against MAST2, Q6P0Q8 (assay: holdup assay). Settings: plain residues with an end cap or a label only (N-terminal biotin on a linker: ado-ado).
Design: key: below the threshold = too weak to quantify, mostly under pKd 3.1 to 4

Chain of MAST2, Q6P0Q8 (Q6P0Q8 1099-1202): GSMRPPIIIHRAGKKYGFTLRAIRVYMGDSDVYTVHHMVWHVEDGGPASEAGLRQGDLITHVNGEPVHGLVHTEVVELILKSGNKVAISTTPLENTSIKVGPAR

Binder	pKd
B1	5.36
B2	3.59

The binders below were run against T9, APBA3_1, O96018 (assay: holdup assay). Settings: plain residues with an end cap or a label only (N-terminal biotin on a linker: ado-ado).
Design: key: below the threshold = too weak to quantify, mostly under pKd 3.1 to 4

Binder	pKd
B1	below the threshold
B2	below the threshold

The binders below were run against T10, LNX2_3, Q8N448 (assay: holdup assay). Settings: plain residues with an end cap or a label only (N-terminal biotin on a linker: ado-ado).
Design: key: below the threshold = too weak to quantify, mostly under pKd 3.1 to 4

Binder	pKd
B1	below the threshold
B2	below the threshold

Each binder was assayed against T11, GRIP1_4, Q9Y3R0 (assay: holdup assay). Settings: plain residues with an end cap or a label only (N-terminal biotin on a linker: ado-ado).
Design: key: below the threshold = too weak to quantify, mostly under pKd 3.1 to 4

Binder	pKd
B1	below the threshold
B2	below the threshold

What follows are binders tested against NHERF4_4, Q86UT5 (assay: holdup assay). Settings: plain residues with an end cap or a label only (N-terminal biotin on a linker: ado-ado).
Design: key: below the threshold = too weak to quantify, mostly under pKd 3.1 to 4

Chain of NHERF4_4, Q86UT5 (Q86UT5 464-550): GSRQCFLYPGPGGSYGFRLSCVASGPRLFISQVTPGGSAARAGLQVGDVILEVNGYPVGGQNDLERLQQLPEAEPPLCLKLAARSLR

Binder	pKd
B1	below the threshold
B2	below the threshold
